Laboratory results published in PMC7614924.

Target: 0N4R isoform of human tau bearing P301S with a C-terminal Venus tag (Sarkosyl-insoluble filaments from seeded HEK293 cells) (human)

- percent of HEK293 P301S tau-Venus cells with aggregates (Venus fluorescence) 24 h after 100 nM recombinant tau fibrils with lipofectamine: 20%
Substance: Recombinant N-terminally 6xHis-tagged human P301S 0N4R tau (heparin-assembled fibrils) (natural protein)
